# Test: yeast display, Sf9 membrane polyspecificity reagent, FACS + sequencing; frameworks hold sequencing errors
# How it was run: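 A synthetic nanobody library was expressed on Saccharomyces cerevisiae BJ5465 by galactose induction for 36–48 hours. The library was stained for 1 hour at 4 °C with 10% biotinylated, detergent-solubilized Sf9 membrane reagent and enriched with streptavidin microbeads before FACS. Low and high (top ~1%) gates were set on anti-HA fluorescence for expression and streptavidin fluorescence for reagent binding, and each polyreactivity label reflects the gate of origin.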
row,Sequence,polyreactivity (PSR sort gate)
1,QVQLVESGGGLVQAGGSLRLSCAASGSTFGKNAMGWYRQAPGKERELVASITWRGGSTYYADSVKGRFTISRDNAKNTVYLQMNSLKPEDTAVYYCATKWHIHIGSYKYYYWGHGTQVTVSS,low polyreactivity
2,QVQLVESGGGLVQAGGSLRLSCAASGSTFGKYAMGWYRPAPGKERELVAGITYSGGSTYYADSVKGRFTISRDNAKNTVYLQMNSLKPEDTAVYYCAADGSYYTDFVASKYDYWGQGTQVTVSS,low polyreactivity
3,QVQLVESGGGLVQAGGSLRLSCAASGSTFGKYAMGWYRQAPGKERELVASISRSGASTYYADSVKGRFTISRDNAKNTVYVQMNSQKPEDTAVYYCNKARNPEGYWRYDYWGQGTQVTVSS,high polyreactivity
4,QVQLVESGGGLVQAGGSLRLSCAASGSTFGLNAMGWYRQAPGKERELVAAITRSDITNYADSVKGRFTISRDNAKNTVYLQMNSLKPEDTAVDYCAARGLWPYDYWGQGTQVTVSS,low polyreactivity
5,QVQLVESGGGLVQAGGSLRLSCAASGSTFGLYAMGWYRQAPGKERELVAAITRGGVTDFADCVKGRFTFSRDNAKYTVYLQMNSLKPEDTAVYYCAAQYKRYHGLFGFWGQGTQVTVSS,high polyreactivity
6,QVQLVESGGGLVQAGGSLRLSCAASGSTFGLYGMGWYRQAPGKDRELVAAITWSGGSTYYADSVKGRFTISRDNAKNTVYLQMNSLKPEDTAVYYSNADYYYWFSYGIGDNEYDYWGQGTQVTVSS,low polyreactivity
7,QVQLVESGGGLVQAGGSLRLSCAASGSTFGNNTMGWNRQSPGKEREFVAAITESGGGTYADSVKGRFTISRDNAKNTVYLQLNSLKPEDTAVYYCAAVWYIWPFAFYDWAQGTQVTVSS,high polyreactivity
8,QVQLVESGGGLVQAGGSLRLSCAASGSTFGNNTMGWYRQAPGKEREFVAAITESGGGTYADSVKGRFTISRDNAKNTVYLQMNSLKPEDTAVYYCAAVWYIWPFAFYYWGQGTQVTVSS,high polyreactivity
9,QVQLVESGGGLVQAGGSLRLSCAASGSTFGNYAMGGYRQAPGKERELVAVSTSAGSTYYADSVKGRFTISRDNAKNTVYLQMNSLKPEDPAVYYCNTGKHVRYYYWGQGTQVTVSS,low polyreactivity
10,QVQLVESGGGLVQAGGSLRLSCAASGSTFGPNAMGWYRQAPGKERELVATISFRGGTTYYADSVKGRFTISRDHAKNTVYLQMNSLKPEDTAVYYCAVKVGYVRLLYHYYYWGQGTQGTVSS,high polyreactivity
11,QVQLVESGGGLVQAGGSLRLSCAASGSTFGPNTMGWYRQAPGKERELVAAITSTGSTYYADSVKGRFTISRDNGKNTVYFEMNILLPEDTAVYYCAARRYYGVYYAFYYWGQGTQVTVSS,high polyreactivity
12,QVQLVESGGGLVQAGGSLRLSCAASGSTFGPYAMGWYRQAPGKERELVAAIRSDGGTYYADSVKGRFTISRDNAKNTVYLQMNSLKPEDTAVYYCATRPINSYYDHDSWGQGTQVTVSS,high polyreactivity
13,QVQLVESGGGLVQAGGSLRLSCAASGSTFGPYVMGGYRQAPGKERELVAVISGGSTDYADSVKGRFTISRDNAKNTVYLQMNSLKPEDTAVYYCNAEYYFYLSPTVYLYDYWGQGTQVTVSS,high polyreactivity
14,QVQLVESGGGLVQAGGSLRLSCAASGSTFGQYVMGWYRQAPGKERELVAAITYSGGSTYYADSVKGRFTISRDNAKNTVYLQMNSLKPEDTAVYYCAARGRRDGYSRVPRGYWGQGTQVTVSS,high polyreactivity
15,QVQLVESGGGLVQAGGSLRLSCAASGSTFGRNAMGWYRQAPGKERELVAAISNGGSTNYADSVKGRFTISRDNAKNTVYLQMNSLNPEDTAVYYCNRRVPYSFYSRGYYYWGQGTQVTVSS,high polyreactivity
16,QVQLVESGGGLVQAGGSLRLSCAASGSTFGRNAMGWYRQAPGKERELVAAISWSASRTYYADSVKGRFTISRDNAKNTVYLQMNSLIPDDTAVYYCAAEYDVGYFGYEYWGQGTQVTVSS,high polyreactivity
17,QVQLVESGGGLVQAGGSLRLSCAASGSTFGRNAMGWYRQAPGKERELVAAITASGGTTYYADSVKGRFTISRDNAKNTVYLQMNSLKPEDTAVYYCARAGHFSFKDDYWGQGTQVTVSS,low polyreactivity
18,QVQLVESGGGLVQAGGSLRLSCAASGSTFGRNAMGWYRQAPGKERELVAAITASGGTTYYADSVKGRFTISRDNAKNTVYLQMNSLKPEETAVYYCARAGHFSFKYDYWGQGTQVTVSS,low polyreactivity
19,QVQLVESGGGLVQAGGSLRLSCAASGSTFGRNTMGWYRKAPGKERELVASITRSSTSTNYADSVKGRFTISRDNAKNTVYLQMNSLKPEDTAVYYCAARALRTDRSPVGSHEYWGQGTQVTVSS,low polyreactivity
20,QVQLVESGGGLVQAGGSLRLSCAASGSTFGRNTMGWYRPAPGKERELVAAITAGDTTTYADSVKGRFTISRDNAKNTDYLQMKSLKREDTAVYYCAVDPVRGRDYSWMDYWGQGSQVTVSS,low polyreactivity
21,QVQLVESGGGLVQAGGSLRLSCAASGSTFGRNVMGWYRQAPGKERELVAAISIRGGSTYYADSVKGRFTISRDNAKNTVYLQMNSLKPEDTAVYYCARDYPTDAYDYWGQGTQVTVSS,low polyreactivity
22,QVQLVESGGGLVQAGGSLRLSCAASGSTFGRYAMGWYRQAPGKERELVAAITRSGGRTYYADSLKGRFTISRDNAKNTVYLQMNSLKPEDTAVYYCAAVGNLYYTSHWQYDYWGQGTQVTVSS,high polyreactivity

row,Sequence,polyreactivity (PSR sort gate)
1,QVQLVESGGGLVQAGGSLRLSCAASGSTFGRYTMGWYRQAPGKEREFVAAIRWSGGNTYYADSVKGRFTISRDNAKNTVYLQMNSLKPEDTAVYYCNRVYSTIGDYWGQGTQVTVSS,low polyreactivity
2,QVQLVESGGGLVQAGGSLRLSCAASGSTFGRYVMGWYRQAPGKERELVAAISYSGGRTYYADSVKGRFTISRDNAKNTVYLQMNSLKPEDTAVYYCAARVRTVRNTYYSWGQGTQVTVSS,high polyreactivity
3,QVQLVESGGGLVQAGGSLRLSCAASGSTFGSNAMGWYRQAPGKERELVAAISSIGGSTYYADSVKGRFTISRDNAKNTVYLQMNSLKTEDTAVYYCAAKYYGRYYRYLGSSFDYWGQGTQVTVSS,high polyreactivity
4,QVQLVESGGGLVQAGGSLRLSCAASGSTFGSNAMGWYRQAPGKERELVAAITYSGGRTYYADSVKGRFTISRDNAKNTVYLQMNSLKPEDTAVYYCAATFGFFYYQYDYWGQGTQVTVSS,low polyreactivity
5,QVQLVESGGGLVQAGGSLRLSCAASGSTFGSNDLGWYRQAPGQERELVAAITWSGGSTFYADSVKGRFTISRDNAKNTVYLQMNSLKPEDTALYSCAVSTEVNRYHAKYDYRGQGTQVTVSS,low polyreactivity
6,QVQLVESGGGLVQAGGSLRLSCAASGSTFGSYAMGWYRQAPGKERELVAAISRSGTSTYYADSVKGRFTISRDNAKNTVYLQMNSLKPEETAVYYCAAKFVTSGGLEGYWGQGTQVTVSS,high polyreactivity
7,QVQLVESGGGLVQAGGSLRLSCAASGSTFGSYAMGWYRQAPGKERELVADISSRGASTYYADSVKGRFTISRDNAKNTVYLQMNSLKPEDTAVYYCARDVYIWYGYGYFPEYEYWGQGTQVTVSS,low polyreactivity
8,QVQLVESGGGLVQAGGSLRLSCAASGSTFGSYTMGWYRQAPGKERELVAAISYSSGRTYYADSVKGRFTISRDNAKNTVYLQMNSLKPEDTAVYYCAAVSRGRGEYDYWGQGTQLTVSS,high polyreactivity
9,QVQLVESGGGLVQAGGSLRLSCAASGSTFGTNAMGWYRQAPGKERELVAAISTGGSTYYADSVKGRFTISRDNAKNTVYLQMNSLKPEDNAVYYCAALADYVRRASDYWGQGTQVTVSS,low polyreactivity
10,QVQLVESGGGLVQAGGSLRLSCAASGSTFGTYAMGWNRQATWKERELVAAITYSTGNTYYADSVKGRFTISRDNAKNNVYLQMNSLKPEDTAVYYCALEFGYYYFWMDYWGQGTQVTVSS,high polyreactivity
11,QVQLVESGGGLVQAGGSLRLSCAASGSTFGTYAMGWYRKAPGKERELVAAISTGGSTYYADSVKGRFTISRDNAKNTVYLQMNSLKPEDTAVYYCAALADYVRRASEYWGQGTQVTVSS,high polyreactivity
12,QVQLVESGGGLVQAGGSLRLSCAASGSTFGTYAMGWYRQATGKERELVAAISRGVSTYYADSVKGRFTISRDKAKNTVYLEMNSLKPEDTAVYYCAADPFWQTVYVYYTYSGTSYYWGQGTQVTVSS,low polyreactivity
13,QVQLVESGGGLVQAGGSLRLSCAASGSTFGVNAMGWYRPAPGKERELVAAITYSGGSTYYADSVKGRFTISRDNAKNTVYLQMNSLKPEDTAVYYCATTWYFVASWYVAIYDYWGQGTQVTVSS,low polyreactivity
14,QVQLVESGGGLVQAGGSLRLSCAASGSTFGVNAMGWYRQAPGKERELVAAIRWSDGSTYYADSVKGRFTISRDNAKNTVYLQMNSLKPEDTAVYYCNTDLTVYFPVEYWGQGTQVTVSS,low polyreactivity
15,QVQLVESGGGLVQAGGSLRLSCAASGSTFGVNAMGWYRQAPGKERELVAAISSSGSSTYADSVKGRFTISRDYAKNTVYLQMNSLKPEYTGVYYCNKTTLLTVEYDYWGQGPQVTVSS,low polyreactivity
16,QVQLVESGGGLVQAGGSLRLSCAASGSTFGVNAMGWYRQAPGKERELVATISRGTSTNYADSVKGRFTISRDNAKNTVYLQMHSLKPEDTAVYYCAKRVFYPGAYRYYYWGQGTQVTVSS,high polyreactivity
17,QVQLVESGGGLVQAGGSLRLSCAASGSTFGVNVMGWYRQAPGKERELVDAISRSGGRTYYADSVKGRFTISRDNAKNTVYLQMNSLKPEDTAVYYCNTRGYDYWGQGTQVTVSS,high polyreactivity
18,QVQLVESGGGLVQAGGSLRLSCAASGSTFGVYAMGWYRQAPGKERELVAAISESGGNTYYADSVKGRFTISRDNAKNTVYLQLNSLKPEDPAVYYCNTDVVVVHYIQAYYWGQGTQVTVSS,low polyreactivity
19,QVQLVESGGGLVQAGGSLRLSCAASGSTFGVYAMGWYRQAPGKERELVAAISKRGGSTYYADSVKGRFTISRDNAKNTVYLQMNSLKPEDTAVYYCAAGARGLYDYWGQGTQVTVSS,high polyreactivity
20,QVQLVESGGGLVQAGGSLRLSCAASGSTFGVYAMGWYRQAPGKERELVAAISSSTGSTYYADSVKGRFTISRDNAMNSVYLQMNSLKPEDTAVYYCDAAGYGKVLGDYWGQGTLVTVSS,low polyreactivity
21,QVQLVESGGGLVQAGGSLRLSCAASGSTFGVYAMGWYRQAPGKERELVASISSRGRTKYADSVKGSFTISRDNAKNTVYLQMIRLKPEDTAFYYCAARIRYLGVRDNDNYYWGQGTQVTVSS,low polyreactivity
